# Measured values taken from paper PMC9402891, “Case report: Biochemical and clinical phenotypes caused by cysteine substitutions in the epidermal growth factor-like domains of fibrillin-1” (Frontiers in Genetics, 2022).
# T1: latent transforming growth factor beta-binding protein 1 fragment LTBP1^1141-1395 (LTBP1^cbEGF14cbEGF15) (human, UniProt Q14766-2 1141-1395)
# T1 construct: LTBP1, residues 1141-1395: cbEGF14, TB3, EGF3 and cbEGF15 domains (the C-terminal region); the domains named are the C-terminal ones, which fits the short isoform; also called LTBP1 polypeptides
# T1 sequence (looked up): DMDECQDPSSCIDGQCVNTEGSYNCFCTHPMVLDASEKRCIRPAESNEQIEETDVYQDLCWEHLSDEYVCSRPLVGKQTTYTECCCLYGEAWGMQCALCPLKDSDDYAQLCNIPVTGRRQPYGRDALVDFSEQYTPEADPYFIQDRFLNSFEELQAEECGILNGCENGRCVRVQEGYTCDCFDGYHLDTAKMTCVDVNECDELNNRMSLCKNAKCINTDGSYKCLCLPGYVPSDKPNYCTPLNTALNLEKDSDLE
# Target: T1, latent transforming growth factor …
# Assay: SPR; immobilised partner not stated; running buffer 10 mM HEPES, 150 mM NaCl, 2 mM CaCl2, pH 7.4, 0.005% (v/v) Tween-20; regeneration 50 mM HCl; Biacore T200 (ProteOn system also named)
# Details: both partners purified
row,Binder,Kd [nM]
1,"human fibrillin-1 fragment FBN1^113-287 (FBN1^E2cbEGF1), wild type (domain or fragment, fibrillin-1, human, residues 113-287: EGF2, EGF3, Hyb1 and cbEGF1 domains; one of them ends in L288, which may be a residue from the vector; also called wild-type fibrillin-1 polypeptides) not shown",1530
2,"human fibrillin-1 fragment FBN1^113-287+C160Y (FBN1^E2cbEGF1+C160Y) (domain or fragment, fibrillin-1, human, residues 113-287 (EGF2, EGF3, Hyb1 and cbEGF1 domains) with the patient mutation C160Y (c.479G>A) in EGF3; also called mutant recombinant fibrillin-1 polypeptides) not shown",1230
